Assay [1] concerns the target 5C.C7 TCR (as measured by surface plasmon resonance) (mouse). The experiment in a line: SPR. For orientation: SPR reads the build-up and loss of mass on a sensor chip optically.
The target in assay [2] is 5C.C7 TCR on 5C.C7 T cell blasts (mouse) (UniProt A2KF29). The experiment in a line: cell-based or functional assay.
For assay [3] the target is unchanged. The experiment in a line: flow cytometry; 2 µM BioMCC(ASA)-I-Ek photocrosslinked to 5C.C7 T cell blasts, against about 38,000 TCRs per T cell. On the technique in general: In flow cytometry, cells or beads pass a laser one at a time.
Assay [4] has the same target. The experiment in a line: flow cytometry; 5C.C7 T cell blasts, one hour at room temperature after staining.
The target of assay [5] is OT-1 TCR on naïve OT-1 T cells (mouse). The experiment in a line: flow cytometry; naïve OT-1 T cells, pMHC 1 µM, UV photocrosslinking, PE-SAv.

Sequence of 102S-I-Ek (P04224 26-216): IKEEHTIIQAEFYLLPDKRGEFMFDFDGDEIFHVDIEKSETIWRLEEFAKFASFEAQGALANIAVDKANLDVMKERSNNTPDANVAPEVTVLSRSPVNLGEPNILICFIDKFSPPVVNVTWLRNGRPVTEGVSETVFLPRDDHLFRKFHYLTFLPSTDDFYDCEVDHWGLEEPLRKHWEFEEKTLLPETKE
Sequence of PE-conjugated MCC-I-Ek tetramer (P04224 26-216): as above
Sequence of MCC(Cy5)-I-Ek (P04224 26-216): as above
Sequence of OVA(ASA)-Kb (P01901 22-305): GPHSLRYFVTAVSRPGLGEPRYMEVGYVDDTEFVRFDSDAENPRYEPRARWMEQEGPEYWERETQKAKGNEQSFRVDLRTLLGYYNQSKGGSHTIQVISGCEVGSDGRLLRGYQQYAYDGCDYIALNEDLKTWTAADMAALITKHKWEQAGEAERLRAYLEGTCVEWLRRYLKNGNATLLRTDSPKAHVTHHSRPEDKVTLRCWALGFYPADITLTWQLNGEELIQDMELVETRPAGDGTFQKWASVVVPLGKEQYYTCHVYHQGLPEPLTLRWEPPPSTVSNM

As a reminder, the Kd is the free concentration of one partner at which half of the binding sites on the other are occupied at equilibrium, for simple one-to-one binding. High values mean a looser complex, low ones a tighter complex. In assay [1], “102S-I-Ek (from UniProt P04224 26-216) (peptide-MHC)” showed a Kd of 206 µM and a t1/2 of 0.83 s.

“BioMCC(ASA)-I-Ek (from UniProt P04224 26-216) (peptide-MHC)”: in assay [2], the duration of calcium flux on planar lipid bilayer with ICAM-1 and B7-1 is greater than 10 min; the duration of calcium flux on planar lipid bilayer without ICAM-1 and B7-1 worked out at 3 min; the peak of fura-2 excitation ratio (340 nm/380 nm) above the baseline; 5100 or 7900 photocrosslinked pMHCs per cell was 2.5 fold. For the same substance, the percent of the total TCRs on a T cell surface permanently bound in assay [3] turned out to be 16%. This substance came in with a decrease of the staining signal after one hour at room temperature in assay [4] of 5%.

As for “MCC(Cy5)-I-Ek (from UniProt P04224 26-216) (peptide-MHC)”, in assay [2], the peak of fura-2 excitation ratio (340 nm/380 nm) above the baseline; 6100 standard agonist pMHCs per cell amounted to 2.5 fold.

In assay [5], “OVA(ASA)-Kb (from UniProt P01901 22-305) (peptide-MHC)” gave a fold efficiency of staining against the null SIAAFASL(ASA)-Kb monomer greater than 10 fold.

Consider “PE-conjugated MCC-I-Ek tetramer (from UniProt P04224 26-216) (peptide-MHC)”, for which, in assay [4], the decrease of the staining signal after one hour at room temperature was determined as 50%.

The record behind these values is patent US20140120557A1.
